These results are taken from the supplement of paper PMC6757056.

± gives the standard deviation of the averaged measurements.

To fix the notation:
B1: library; a variant is named by its letters at N, in order (parent)
chain: GCUGUCACCGGUGUAUUACCCUAGUGGUCGACCGGUCUGAUGAGUCUNNNNNNAGACGAAACAGC

Data set [1] covers variants of B1. The data set is described as follows: normalized RNA/DNA level with ligand (relative to sTRSVctl = 100) (log10 (% of sTRSVctl)); ligand: hypoxanthine (xanthine aptamer); higher = less ribozyme self-cleavage, higher mRNA level. The following applies: ligand concentration (+) RNA-Seq: 5 mM, HEK293T, reporter: mCherry (pCS4076), ligand present: yes. Summed up: (§1)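 Total RNA, extracted with EDTA 72 h after HEK293T cells were transfected with 4 µg per 6-well well of reporter-linked ribozyme switch library plasmids, was reverse-transcribed, amplified, barcoded and sequenced. Ligand, if used, was added 1 h before transfection. RNA level was derived from RNA reads divided by DNA reads and normalized to a spiked-in non-cleaving sequence or to the top sequences. This was multiplied by 100 and log10-transformed, with the top set of 25 sequences and a ≥100 DNA read minimum.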

Variants of B1 are the subject of data set [2]. The data set is described as follows: normalized RNA/DNA level without ligand (relative to sTRSVctl = 100) (log10 (% of sTRSVctl)); ligand: hypoxanthine (xanthine aptamer); higher = less ribozyme self-cleavage, higher mRNA level. As to conditions: HEK293T, reporter: mCherry (pCS4076), ligand present: no. The procedure, abridged: as §1

With CGGUUG, the “normalized RNA/DNA level with ligand (log10)” value in data set [1] was 1.97 ± 0.072. In addition, the “normalized RNA/DNA level without ligand (log10)” value in data set [2] was 1.88 ± 0.062.
The corresponding values for UGUAGG are 1.895 ± 0.002 and 1.5 ± 0.015.
The corresponding values for UGUAGC are 1.94 ± 0.046 and 1.796 ± 0.0085.
The corresponding values for UGUAGU are 1.88 ± 0.029 and 1.5 ± 0.071.
For the variant CGGGCC, in data set [1], the “normalized RNA/DNA level with ligand (log10)” value is 1.944 ± 0.0098. The “normalized RNA/DNA level without ligand (log10)” value in data set [2] came to 1.99 ± 0.026.
Consider CGGGCA, for which the “normalized RNA/DNA level with ligand (log10)” value in data set [1] is 1.98 ± 0.049. The “normalized RNA/DNA level without ligand (log10)” value in data set [2] was 1.8985 ± 0.0018.
Regarding CGGGCG, the “normalized RNA/DNA level with ligand (log10)” value in data set [1] is 1.973 ± 0.012. The “normalized RNA/DNA level without ligand (log10)” value in data set [2] came to 1.76 ± 0.024.
The like results for UGUAUU were, in that order, 1.95 ± 0.056 and 1.8992 ± 0.0009.
Turning to UGUAUC, in data set [1], the “normalized RNA/DNA level with ligand (log10)” value came to 1.94 ± 0.052. In data set [2], the “normalized RNA/DNA level without ligand (log10)” value was 1.92 ± 0.013.
The corresponding values for UGUAUA are 1.97 ± 0.029 and 1.866 ± 0.0081.
The like results for AGGUUU were, in that order, 1.95 ± 0.073 and 1.87 ± 0.026.
Consider AGGUUC, for which, in data set [1], the “normalized RNA/DNA level with ligand (log10)” value was determined as 1.939 ± 0.0087. The “normalized RNA/DNA level without ligand (log10)” value in data set [2] is 1.83 ± 0.026.
The corresponding values for AGGUUA are 1.93 ± 0.035 and 1.68 ± 0.031.
Turning to GGUUAU, the “normalized RNA/DNA level with ligand (log10)” value in data set [1] was 1.94 ± 0.052. Further, in data set [2], the “normalized RNA/DNA level without ligand (log10)” value stood at 1.79 ± 0.03.
As to GGUUAA, the “normalized RNA/DNA level with ligand (log10)” value in data set [1] turned out to be 1.93 ± 0.062. Besides, the “normalized RNA/DNA level without ligand (log10)” value in data set [2] was found to be 1.77 ± 0.072.
The corresponding values for UGUACC are 2 ± 0.033 and 1.92 ± 0.023.
As for UGUACG, the “normalized RNA/DNA level with ligand (log10)” value in data set [1] was determined as 1.929 ± 0.01. Besides, in data set [2], the “normalized RNA/DNA level without ligand (log10)” value was 1.83 ± 0.044.
For GGUACC, the “normalized RNA/DNA level with ligand (log10)” value in data set [1] was determined as 1.94 ± 0.067. Further, the “normalized RNA/DNA level without ligand (log10)” value in data set [2] worked out at 1.921 ± 0.016.
Turning to GGUACA, in data set [1], the “normalized RNA/DNA level with ligand (log10)” value stood at 1.94 ± 0.03. Moreover, the “normalized RNA/DNA level without ligand (log10)” value in data set [2] was determined as 1.796 ± 0.0062.
Take CGUUGC: the “normalized RNA/DNA level with ligand (log10)” value in data set [1] is 1.96 ± 0.1. Moreover, in data set [2], the “normalized RNA/DNA level without ligand (log10)” value amounted to 1.91 ± 0.088.
As to CGUUGU, the “normalized RNA/DNA level with ligand (log10)” value in data set [1] is 1.98 ± 0.05. The “normalized RNA/DNA level without ligand (log10)” value in data set [2] was found to be 1.89 ± 0.059.
For CGUUGA, the “normalized RNA/DNA level with ligand (log10)” value in data set [1] amounted to 1.96 ± 0.024. Further, the “normalized RNA/DNA level without ligand (log10)” value in data set [2] stood at 1.834 ± 0.014.
The like results for GGUGAA were, in that order, 1.9 ± 0.061 and 1.65 ± 0.024.
The corresponding values for AGGGGU are 1.855 ± 0.0023 and 1.61 ± 0.032.
The corresponding values for AGGGGA are 1.908 ± 0.015 and 1.61 ± 0.053.
Turning to CGUGGC, in data set [1], the “normalized RNA/DNA level with ligand (log10)” value is 1.901 ± 0.0033. Besides, the “normalized RNA/DNA level without ligand (log10)” value in data set [2] was determined as 1.883 ± 0.013.
The like results for CGUGGU were, in that order, 1.95 ± 0.021 and 1.86 ± 0.026.
AGGUGU: the “normalized RNA/DNA level with ligand (log10)” value in data set [1] was 1.92 ± 0.028. Moreover, the “normalized RNA/DNA level without ligand (log10)” value in data set [2] worked out at 1.49 ± 0.098.
On to AGGUGG, for which the “normalized RNA/DNA level with ligand (log10)” value in data set [1] worked out at 1.83 ± 0.021. The “normalized RNA/DNA level without ligand (log10)” value in data set [2] was 1.391 ± 0.011.
As to AGGUGC, in data set [1], the “normalized RNA/DNA level with ligand (log10)” value is 1.93 ± 0.051. Moreover, the “normalized RNA/DNA level without ligand (log10)” value in data set [2] was found to be 1.68 ± 0.04.
The corresponding values for UGUCUU are 2.01 ± 0.033 and 1.907 ± 0.0099.
As for UGUCUG, the “normalized RNA/DNA level with ligand (log10)” value in data set [1] is 1.93 ± 0.037. For the same variant, in data set [2], the “normalized RNA/DNA level without ligand (log10)” value stood at 1.77 ± 0.03.
With UGUCUC, the “normalized RNA/DNA level with ligand (log10)” value in data set [1] turned out to be 1.999 ± 0.0092. Besides, the “normalized RNA/DNA level without ligand (log10)” value in data set [2] is 2.013 ± 0.019.
Regarding UGUUCG, the “normalized RNA/DNA level with ligand (log10)” value in data set [1] was determined as 1.94 ± 0.074. In addition, in data set [2], the “normalized RNA/DNA level without ligand (log10)” value amounted to 1.8368 ± 0.00097.
The corresponding values for UGUUCA are 1.96 ± 0.093 and 1.87 ± 0.029.
For the variant UGUUCC, the “normalized RNA/DNA level with ligand (log10)” value in data set [1] was determined as 2.03 ± 0.011. Besides, the “normalized RNA/DNA level without ligand (log10)” value in data set [2] turned out to be 1.93 ± 0.022.
The corresponding values for UGUUCU are 1.93 ± 0.058 and 1.97 ± 0.051.
For the variant UGUUAC, in data set [1], the “normalized RNA/DNA level with ligand (log10)” value worked out at 1.912 ± 0.0067. Moreover, in data set [2], the “normalized RNA/DNA level without ligand (log10)” value came out at 1.836 ± 0.0054.
The corresponding values for UGUUAG are 1.884 ± 0.0019 and 1.69 ± 0.038.
Take UGUUAA: in data set [1], the “normalized RNA/DNA level with ligand (log10)” value came to 1.94 ± 0.029. Besides, in data set [2], the “normalized RNA/DNA level without ligand (log10)” value worked out at 1.841 ± 0.014.
As for CGUCGC, the “normalized RNA/DNA level with ligand (log10)” value in data set [1] came to 1.9 ± 0.11. For the same variant, the “normalized RNA/DNA level without ligand (log10)” value in data set [2] was found to be 1.909 ± 0.01.
The corresponding values for CGUCGG are 1.9 ± 0.026 and 1.57 ± 0.035.
Take CGUCGA: the “normalized RNA/DNA level with ligand (log10)” value in data set [1] came out at 1.914 ± 0.011. The “normalized RNA/DNA level without ligand (log10)” value in data set [2] came out at 1.85 ± 0.052.
For CGUCGU, the “normalized RNA/DNA level with ligand (log10)” value in data set [1] came out at 2.05 ± 0.051. Besides, the “normalized RNA/DNA level without ligand (log10)” value in data set [2] was 1.98 ± 0.036.
The like results for UGGUCC were, in that order, 1.98 ± 0.035 and 1.93 ± 0.039.
For UGGUCU, the “normalized RNA/DNA level with ligand (log10)” value in data set [1] worked out at 1.91 ± 0.028. For the same variant, the “normalized RNA/DNA level without ligand (log10)” value in data set [2] amounted to 1.91 ± 0.025.
The like results for AGUUAU were, in that order, 1.89 ± 0.057 and 1.8 ± 0.068.
As to GGUAUU, the “normalized RNA/DNA level with ligand (log10)” value in data set [1] is 1.973 ± 0.0023. Also, the “normalized RNA/DNA level without ligand (log10)” value in data set [2] stood at 1.88 ± 0.085.
For the variant GGUAUA, the “normalized RNA/DNA level with ligand (log10)” value in data set [1] was 1.92 ± 0.074. For the same variant, the “normalized RNA/DNA level without ligand (log10)” value in data set [2] was 1.83 ± 0.024.
Regarding GGUAUC, the “normalized RNA/DNA level with ligand (log10)” value in data set [1] amounted to 1.957 ± 0.017. For the same variant, the “normalized RNA/DNA level without ligand (log10)” value in data set [2] amounted to 1.82 ± 0.013.
For UGGUAG, in data set [1], the “normalized RNA/DNA level with ligand (log10)” value was determined as 1.88 ± 0.028. For the same variant, the “normalized RNA/DNA level without ligand (log10)” value in data set [2] was 1.55 ± 0.011.
The corresponding values for UGGUAC are 1.98 ± 0.088 and 1.85 ± 0.041.
The corresponding values for UGGUAU are 1.907 ± 0.0077 and 1.707 ± 0.017.
The corresponding values for UGGUAA are 1.902 ± 0.013 and 1.712 ± 0.011.
For the variant UGUGAG, the “normalized RNA/DNA level with ligand (log10)” value in data set [1] was determined as 1.894 ± 0.015. Moreover, in data set [2], the “normalized RNA/DNA level without ligand (log10)” value stood at 1.588 ± 0.011.
The like results for UGUGAA were, in that order, 1.908 ± 0.012 and 1.76 ± 0.025.
The like results for UGUGAU were, in that order, 1.9 ± 0.026 and 1.77 ± 0.023.
The like results for AGUAUG were, in that order, 1.824 ± 0.017 and 1.39 ± 0.043.
